{"source": "patent US20140134202A1", "about": "(FOLIA BIOTECH, published 2014)", "molecular_target": "the molecule itself", "experiment": "gel filtration (Superdex 200), self-association into disks", "data": [{"protein": "CP.DELTA.N5 PapMV coat protein (recombinant, N-terminal 5 amino acids deleted, alanine inserted at p (other, also called CPΔN5; CPΔN5 PapMV VLP) MASTPNIAFPAITQEQMSSIKVDPTSNLLPSQEQLKSVSTLMVAAKVPAASVTTVALELVNFCYDNGSSAYTTVTGPSSIPEISLAQLASIVKASGTSLRKFCRYFAPIIWNLRTDKMAPANWEASGYKPSAKFAAFDFFDGVENPAAMQPPSGLTRSPTQEERIANATNKQVHLFQAAAQDNNFASNSAFITKGQISGSTPTIQFLPPPE", "values": [{"measurement": "binding result", "result": "binds"}]}]}
